Data reported in patent publication US20160279215A1, “NOVEL PEPTIDES AND COMBINATION OF PEPTIDES FOR USE IN IMMUNOTHERAPY AGAINST VARIOUS TUMORS” (immatics biotechnologies GmbH, priority 2015, published 2016).

Molecular target: T1, HLA-A*02:01 (Homo sapiens, UniProt P04439, D140Y/D185E/D98H/E176V/E277Q/G131W/G231S/I119V/I121R/I166T/I218V/L300P/L318F/N151K/N90K/P208A/P217A/Q86G/Q94H/R138H/R169H/T345S)
T1 construct: made in house
Assay: MHC binding assay: UV-ligand exchange with β2m ELISA (peptide exchange yield)
Details: binding to HLA-A*02:01 evaluated by peptide exchange yield (UV-ligand exchange, β2m ELISA)
Source text: Candidate peptides for T cell based therapies according to the present invention were further tested for their MHC binding capacity (affinity). The individual peptide-MHC complexes were produced by UV-ligand exchange, where a UV-sensitive peptide is cleaved upon UV-irradiation, and exchanged with the peptide of interest as analyzed. Only peptide candidates that can effectively bind and stabilize the peptide-receptive MHC molecules prevent dissociation of the MHC complexes. To determine the yield of the exchange reaction, an ELISA was performed based on the detection of the light chain (β2m) of stabilized MHC complexes. The assay was performed as generally described in Rodenko et al. (Rodenko et al., 2006).
96 well MAXISorp plates (NUNC) were coated over night with 2 ug/ml streptavidin in PBS at room temperature, washed 4× and blocked for 1 h at 37° C. in 2% BSA containing blocking buffer. Refolded HLA-A*02:01/MLA-001 monomers served as standards, covering the range of 15-500 ng/ml. Peptide-MHC monomers of the UV-exchange reaction were diluted 100 fold in blocking buffer. Samples were incubated for 1 h at 37° C., washed four times, incubated with 2 ug/ml HRP conjugated anti-β2m for 1 h at 37° C., washed again and detected with TMB solution that is stopped with […]. Absorption was measured at 450 nm. Candidate peptides that show a high exchange yield (preferably higher than 50%, most preferred higher than 75%) are generally preferred for a generation and production of antibodies or fragments thereof, and/or T cell receptors or fragments thereof, as they show sufficient avidity to the MHC molecules and prevent dissociation of the MHC complexes.

Row | Substance | Peptide exchange
1 | 116 (ALLSSVAEA; listed as Homo sapiens) [compound 116] | ++ (≧20% = ++)
2 | 45 (FLPVSVVYV; listed as Homo sapiens) [compound 45] | +++ (≧50 = +++)
3 | 149 (NMADGQLHQV; listed as Homo sapiens) [compound 149] | ++ (≧20% = ++)
4 | 245 (ALLEEEEGV; listed as Homo sapiens) [compound 245] | ++ (≧20% = ++)
5 | 68 (QLMNLIRSV; listed as Homo sapiens) [compound 68] | +++ (≧50 = +++)
6 | 24 (KVWSDVTPL; listed as Homo sapiens) [compound 24] | +++ (≧50 = +++)
7 | 204 (SEWGSPHAAVP; listed as Homo sapiens) [compound 204] | +++ (≧50 = +++)
8 | 281 (LLLESDPKVYSL; listed as Homo sapiens) [compound 281] | ++ (≧20% = ++)
9 | 143 (MLWESIMRV; listed as Homo sapiens) [compound 143] | +++ (≧50 = +++)
10 | 285 (MLLDTVQKV; listed as Homo sapiens) [compound 285] | +++ (≧50 = +++)
11 | 268 (SLDKDIVAL; listed as Homo sapiens) [compound 268] | ++ (≧20% = ++)
12 | 276 (RMPTVLQCV; listed as Homo sapiens) [compound 276] | +++ (≧50 = +++)
13 | 183 (ALSYILPYL; listed as Homo sapiens) [compound 183] | +++ (≧50 = +++)
14 | 139 (IILENIQSL; listed as Homo sapiens) [compound 139] | +++ (≧50 = +++)
15 | 188 (VLGEEQEGV; listed as Homo sapiens) [compound 188] | ++ (≧20% = ++)
16 | 286 (FLTEMVHFI; listed as Homo sapiens) [compound 286] | +++ (≧50 = +++)
17 | 52 (TIGIPFPNV; listed as Homo sapiens) [compound 52] | ++ (≧20% = ++)

Row | Substance | Peptide exchange
18 | 145 (ALEEKLENV; listed as Homo sapiens) [compound 145] | +++ (≧50 = +++)
19 | 123 (QTAPEEAFIKL; listed as Homo sapiens) [compound 123] | + (≧10% = +)
20 | 131 (SLYPHFTLL; listed as Homo sapiens) [compound 131] | +++ (≧50 = +++)
21 | 225 (FLPQPVPLSV; listed as Homo sapiens) [compound 225] | +++ (≧50 = +++)
22 | 192 (TLLPSSGLVTL; listed as Homo sapiens) [compound 192] | ++ (≧20% = ++)
23 | 216 (ALSTVTPRI; listed as Homo sapiens) [compound 216] | ++ (≧20% = ++)
24 | 238 (HLQEKLQSL; listed as Homo sapiens) [compound 238] | ++ (≧20% = ++)
25 | 277 (KLQEELNKV; listed as Homo sapiens) [compound 277] | +++ (≧50 = +++)
26 | 106 (VLLGSVVIFA; listed as Homo sapiens) [compound 106] | ++ (≧20% = ++)
27 | 132 (ALLNNVIEV; listed as Homo sapiens) [compound 132] | +++ (≧50 = +++)
28 | 171 (LLLLDVPTA; listed as Homo sapiens) [compound 171] | ++ (≧20% = ++)
29 | 74 (GLAFLPASV; listed as Homo sapiens) [compound 74] | ++ (≧20% = ++)
30 | 80 (VLTGQVHEL; listed as Homo sapiens) [compound 80] | +++ (≧50 = +++)
31 | 72 (VLSTRVTNV; listed as Homo sapiens) [compound 72] | ++ (≧20% = ++)
32 | 49 (KLIGNIHGNEV; listed as Homo sapiens) [compound 49] | ++ (≧20% = ++)
33 | 20 (ALVEKGEFAL; listed as Homo sapiens) [compound 20] | ++ (≧20% = ++)
